# Reference: doi:10.1101/2024.07.09.602679 (bioRxiv, 2024)
# T1: full-length Lot5 with N-terminal His6-TEV tag (S. cerevisiae, UniProt P34234 1-306)
# T1 sequence (looked up): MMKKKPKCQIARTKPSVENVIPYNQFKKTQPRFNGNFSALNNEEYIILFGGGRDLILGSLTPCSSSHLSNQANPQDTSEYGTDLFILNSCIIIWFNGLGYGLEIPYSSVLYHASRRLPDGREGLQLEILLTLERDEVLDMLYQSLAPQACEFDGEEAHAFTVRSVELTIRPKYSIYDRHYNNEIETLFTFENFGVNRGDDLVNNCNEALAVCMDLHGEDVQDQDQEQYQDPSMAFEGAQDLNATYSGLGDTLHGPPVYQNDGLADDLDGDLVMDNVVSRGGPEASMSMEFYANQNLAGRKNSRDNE
# T2: D1/D2/F/E/G pentamer (5Sm) (S. cerevisiae, UniProt Q02260 1-109; Q06217 1-110; P54999 1-86; Q12330 1-94; P40204 1-77)
# T2 sequence (looked up) 1: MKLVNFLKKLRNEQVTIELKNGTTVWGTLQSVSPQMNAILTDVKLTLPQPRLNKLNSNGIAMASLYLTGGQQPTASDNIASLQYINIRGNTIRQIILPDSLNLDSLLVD
# T2 sequence (looked up) 2: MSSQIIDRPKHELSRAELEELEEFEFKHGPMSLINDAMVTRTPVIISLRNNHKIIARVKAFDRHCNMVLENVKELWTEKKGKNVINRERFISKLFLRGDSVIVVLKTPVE
# T2 sequence (looked up) 3: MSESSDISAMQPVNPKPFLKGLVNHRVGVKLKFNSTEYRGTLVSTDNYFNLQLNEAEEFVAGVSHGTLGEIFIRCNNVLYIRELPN
# T2 sequence (looked up) 4: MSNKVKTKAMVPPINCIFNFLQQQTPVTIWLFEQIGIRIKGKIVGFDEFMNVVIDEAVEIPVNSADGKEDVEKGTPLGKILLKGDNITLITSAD
# T2 sequence (looked up) 5: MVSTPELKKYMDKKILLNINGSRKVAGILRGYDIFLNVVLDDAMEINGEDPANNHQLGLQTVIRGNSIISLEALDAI
# T3: Brr1/5Sm heterohexamer (S. cerevisiae, UniProt Q99177 1-341; Q02260 1-109; Q06217 1-110; P54999 1-86; Q12330 1-94; P40204 1-77)
# T3 sequence (looked up) 1: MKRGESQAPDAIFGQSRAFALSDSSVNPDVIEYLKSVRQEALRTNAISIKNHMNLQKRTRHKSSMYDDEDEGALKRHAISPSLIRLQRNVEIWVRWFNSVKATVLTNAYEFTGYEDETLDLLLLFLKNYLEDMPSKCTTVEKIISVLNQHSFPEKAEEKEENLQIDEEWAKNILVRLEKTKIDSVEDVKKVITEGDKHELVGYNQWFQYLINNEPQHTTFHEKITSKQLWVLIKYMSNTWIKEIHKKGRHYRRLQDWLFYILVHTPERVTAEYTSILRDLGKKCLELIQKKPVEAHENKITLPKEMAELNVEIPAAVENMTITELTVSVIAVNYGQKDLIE
# T3 sequence (looked up) 2: T2 sequence (looked up) 1
# T3 sequence (looked up) 3: T2 sequence (looked up) 2
# T3 sequence (looked up) 4: T2 sequence (looked up) 3
# T3 sequence (looked up) 5: T2 sequence (looked up) 4
# T3 sequence (looked up) 6: T2 sequence (looked up) 5
# T4: Brr1Δ(122-197) with N-terminal His6-TEV tag (S. cerevisiae, UniProt Q99177 1-341, Δ(122-197))
# T4 sequence (looked up): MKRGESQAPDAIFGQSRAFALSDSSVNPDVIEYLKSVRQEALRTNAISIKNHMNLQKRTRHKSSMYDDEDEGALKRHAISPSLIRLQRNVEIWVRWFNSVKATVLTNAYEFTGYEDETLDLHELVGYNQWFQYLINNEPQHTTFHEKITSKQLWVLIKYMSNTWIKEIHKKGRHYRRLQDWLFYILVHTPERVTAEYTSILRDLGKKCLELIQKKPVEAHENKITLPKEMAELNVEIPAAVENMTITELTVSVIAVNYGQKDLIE
# B1: SmD3/B subcomplex, HT-tag removed (complex, S. cerevisiae)
# chain 1: MSKIQVAHSSRLANLIDYKLRVLTQDGRVYIGQLMAFDKHMNLVLNECIEERVPKTQLDKLRPRKDSKDGTTLNIKVEKRVLGLTILRGEQILSTVVEDKPLLSK
# chain 2: MTMNGIPVKLLNEAQGHIVSLELTTGATYRGKLVESEDSMNVQLRDVIATEPQGAVTHMDQIFVRGSQIKFIVVPDLLKNAPLFKKNS
# B2: Lot5 (residues 1-227) with N-terminal His6-TEV tag (domain or fragment, S. cerevisiae, UniProt P34234 1-227, looked up)
# chain: MMKKKPKCQIARTKPSVENVIPYNQFKKTQPRFNGNFSALNNEEYIILFGGGRDLILGSLTPCSSSHLSNQANPQDTSEYGTDLFILNSCIIIWFNGLGYGLEIPYSSVLYHASRRLPDGREGLQLEILLTLERDEVLDMLYQSLAPQACEFDGEEAHAFTVRSVELTIRPKYSIYDRHYNNEIETLFTFENFGVNRGDDLVNNCNEALAVCMDLHGEDVQDQDQEQ
# B3: SmD1/D2 subcomplex, HT-tag removed (complex, S. cerevisiae)
# chain 1: T2 sequence (looked up) 1
# chain 2: T2 sequence (looked up) 2
# B4: full-length Brr1, HT-tag removed (natural protein, S. cerevisiae, UniProt Q99177 1-341, looked up)
# chain: T3 sequence (looked up) 1
# B5: full-length Brr1 with N-terminal His6-TEV tag (natural protein, S. cerevisiae, UniProt Q99177 1-341, looked up)
# chain: T3 sequence (looked up) 1
# B6: SmF/E/G subcomplex, HT-tag removed (complex, S. cerevisiae)
# chain 1: T2 sequence (looked up) 3
# chain 2: T2 sequence (looked up) 4
# chain 3: T2 sequence (looked up) 5
# How the values were obtained:
# [1] = target: B2; assay: pull-down
# [2] = target: T1, full-length Lot5 with N-terminal …; assay: pull-down
# [3] = target: T2, D1/D2/F/E/G pentamer (5Sm); assay: SEC
# Brr1/5Sm heterohexamer = target: T3, Brr1/5Sm heterohexamer; assay: SEC
# [4] = target: T2, D1/D2/F/E/G pentamer (5Sm); assay: pull-down
# [5] = target: B5; assay: pull-down
# [6] = target: T4, Brr1Δ(122-197) with N-terminal His6-TEV …; assay: pull-down
# [7] = target: B4; assay: SEC
binding result [1],binding result [2],binding result [3],Binder,also measured
binds,binds,,B1,
,,binds,B2,binding result (Brr1/5Sm heterohexamer): binds
binds,binds,,B3,
,,binds,B4,
,,,B5,binding result [4]: binds
,,,B6,binding result [5]: binds; binding result [6]: binds; binding result [7]: binds
